From article PMC12499416, “ATF3 Deficiency Exacerbates Ageing‐Induced Atherosclerosis and Clinical Intervention Strategy” (Advanced Science, 2025)

Biological target: T1, ATG7 (analyte of the surface plasmon resonance assay) (UniProt Q9D906 1-698)
T1 construct: ATG7 used for surface plasmon resonance; Source of the protein may stand in the Supporting Information
T1 sequence (looked up): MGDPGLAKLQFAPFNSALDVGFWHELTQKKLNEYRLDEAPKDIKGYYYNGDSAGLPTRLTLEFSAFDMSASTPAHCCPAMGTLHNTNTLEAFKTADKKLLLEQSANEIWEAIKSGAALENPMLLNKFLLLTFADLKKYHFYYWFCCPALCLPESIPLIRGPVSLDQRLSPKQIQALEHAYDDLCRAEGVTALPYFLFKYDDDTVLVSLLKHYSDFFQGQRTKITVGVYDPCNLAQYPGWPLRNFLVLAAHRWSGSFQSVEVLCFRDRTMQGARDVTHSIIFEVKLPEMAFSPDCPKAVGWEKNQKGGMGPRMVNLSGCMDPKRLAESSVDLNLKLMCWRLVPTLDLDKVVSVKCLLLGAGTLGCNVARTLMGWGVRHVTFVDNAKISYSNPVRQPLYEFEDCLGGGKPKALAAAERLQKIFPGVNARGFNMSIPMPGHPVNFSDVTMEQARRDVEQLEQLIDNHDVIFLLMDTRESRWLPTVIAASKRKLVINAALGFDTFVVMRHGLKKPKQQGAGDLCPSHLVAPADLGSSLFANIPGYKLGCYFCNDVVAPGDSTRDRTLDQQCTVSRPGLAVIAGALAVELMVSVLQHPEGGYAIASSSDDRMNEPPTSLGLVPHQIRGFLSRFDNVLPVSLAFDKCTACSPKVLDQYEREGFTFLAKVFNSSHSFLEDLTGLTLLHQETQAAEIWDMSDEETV
Experiment: SPR; ATF3 immobilized on the CM5 sensor chip, ATG7 as analyte
Conditions: both partners purified

Kd: 963 nM
B1: ATF3 immobilized on the CM5 sensor chip (natural protein)
chain: MMLQHPGQVSASEVSATAIVPCLSPPGSLVFEDFANLTPFVKEELRFAIQNKHLCHRMSSALESVTVNNRPLEMSVTKSEAAPEEDERKRRRRERNKIAAAKCRNKKKEKTECLQKESEKLESVNAELKAQIEELKNEKQHLIYMLNLHRPTCIVRAQNGRTPEDERNLFIQQIKEGTLQS
